Earlier results as cited in paper PMC8193598.
“And” between values parts separate entries of the source, which are not always exact repeats. Equal values may be shown once. Read-outs that look alike come from different tables or passages of the source.

Tests used:
[1] = molecular target: spike protein (SARS-CoV-2) (UniProt P0DTC2)
[2] = molecular target: SARS-CoV-2 S1 CendR peptide CendR peptide (SARS-CoV-2) (UniProt P0DTC2)
[3] = molecular target: spike protein (SARS-CoV-2) (UniProt P0DTC2); remark: listed apart in the source

Sequence of KREMEN1 (Q96MU8 20-392): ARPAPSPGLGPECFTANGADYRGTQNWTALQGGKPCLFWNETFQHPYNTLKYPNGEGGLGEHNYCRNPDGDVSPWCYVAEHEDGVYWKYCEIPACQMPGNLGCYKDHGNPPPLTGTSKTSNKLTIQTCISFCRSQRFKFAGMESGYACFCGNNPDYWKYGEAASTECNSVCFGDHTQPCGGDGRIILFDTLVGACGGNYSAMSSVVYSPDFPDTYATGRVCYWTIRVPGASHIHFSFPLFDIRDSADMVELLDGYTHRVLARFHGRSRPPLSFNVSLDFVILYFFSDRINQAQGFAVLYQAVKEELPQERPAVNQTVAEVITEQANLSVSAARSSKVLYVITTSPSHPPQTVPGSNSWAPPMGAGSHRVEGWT
Sequence of ASGR1 (P07306 whole entry): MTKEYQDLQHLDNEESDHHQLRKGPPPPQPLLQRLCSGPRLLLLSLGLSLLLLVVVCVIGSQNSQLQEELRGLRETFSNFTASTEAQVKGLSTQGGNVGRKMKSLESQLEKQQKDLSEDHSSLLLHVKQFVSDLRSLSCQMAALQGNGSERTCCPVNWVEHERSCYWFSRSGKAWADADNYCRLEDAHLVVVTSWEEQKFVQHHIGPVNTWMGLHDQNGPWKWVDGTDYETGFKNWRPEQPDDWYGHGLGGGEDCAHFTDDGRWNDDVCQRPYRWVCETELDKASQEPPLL

## KREMEN1 (from UniProt Q96MU8)
[1]
  Kd: 0.0193 µM

## neuropilin-1 coagulation factor domain (from UniProt O14786)
[2]
  Kd: 20.3 µM and 13 µM

## ASGR1 (from UniProt P07306)
[3]
  Kd: 0.0948 µM
